Data on 91 sequences can be found in the supplement of paper PMC9112550, “Optimization of the antimicrobial peptide Bac7 by deep mutational scanning” (BMC Biology, 2022).

In the data set the test system is Escherichia coli TOP10. Briefly: shrunken log2 fold change of peptide-encoding DNA abundance (4.5 h post-induction vs induction); higher = less antimicrobial activity (less host growth inhibition). The conditions noted are these: time post-induction: 4.5 h; library: site-saturation at positions 5, 18, 19, 20.
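Also: peptides expressed intracellularly from a pBAD plasmid library in pooled LB shake-flask culture, induced with 0.3% L-arabinose, DNA abundance read by NGS, three biological replicates, DESeq2 with apeglm shrinkage.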

With RRIRWRPPRLPRPRPRPRNEPRP, the “shrunken log2 fold change” value turned out to be 1.32.
As to RRIRERPPRLPRPRPRPVDLPRP, the “shrunken log2 fold change” value is -0.103.
Consider RRIRCRPPRLPRPRPRPKNVPRP, for which the “shrunken log2 fold change” value is -0.258.
Turning to RRIRYRPPRLPRPRPRPPFEPRP, the “shrunken log2 fold change” value is -0.0385.
RRIRMRPPRLPRPRPRPKSKPRP: the “shrunken log2 fold change” value is 0.566.
Consider RRIRPRPPRLPRPRPRPTDTPRP, for which the “shrunken log2 fold change” value is -0.00249.
In the case of RRIRARPPRLPRPRPRPSWPPRP, the “shrunken log2 fold change” value is 0.164.
In the case of RRIRWRPPRLPRPRPRPMCAPRP, the “shrunken log2 fold change” value worked out at 0.713.
Take RRIRGRPPRLPRPRPRPHDLPRP: the “shrunken log2 fold change” value is -0.00843.
Under RRIRIRPPRLPRPRPRPSNCPRP stands -0.24.
In the case of RRIRGRPPRLPRPRPRPETGPRP, the “shrunken log2 fold change” value was found to be 0.81.
As for RRIRQRPPRLPRPRPRPTYLPRP, the figure is -0.562; as for RRIRCRPPRLPRPRPRPCISPRP, -0.582.
On to RRIRQRPPRLPRPRPRPYQGPRP, for which the “shrunken log2 fold change” value amounted to 0.00707.
RRIRVRPPRLPRPRPRPPFIPRP: the “shrunken log2 fold change” value was -0.23.
Consider RRIRVRPPRLPRPRPRPHCCPRP, for which the “shrunken log2 fold change” value was -0.147.
In the case of RRIRNRPPRLPRPRPRPDDQPRP, the “shrunken log2 fold change” value was found to be 0.0463.
Under RRIRGRPPRLPRPRPRPFHGPRP stands 0.0325; under RRIRIRPPRLPRPRPRPEEVPRP, -0.00172.
Take RRIRERPPRLPRPRPRPAVTPRP: the “shrunken log2 fold change” value was -0.13.
Under RRIRERPPRLPRPRPRPYQIPRP stands -0.388; under RRIRQRPPRLPRPRPRPNFFPRP, 0.313; under RRIRMRPPRLPRPRPRPKNEPRP, 0.881.
Under RRIRKRPPRLPRPRPRPNEFPRP stands -0.042; under RRIRSRPPRLPRPRPRPWRCPRP, 0.0757; under RRIRVRPPRLPRPRPRPSMRPRP, 0.477.
Under RRIRIRPPRLPRPRPRPLLSPRP stands -0.483; under RRIRLRPPRLPRPRPRPISLPRP, -0.36.
For the sequence RRIRSRPPRLPRPRPRPKQFPRP, the “shrunken log2 fold change” value amounted to 0.26.
Under RRIRVRPPRLPRPRPRPSCVPRP stands -0.583.
RRIRMRPPRLPRPRPRPIWVPRP: the “shrunken log2 fold change” value was -0.0406.
For RRIRFRPPRLPRPRPRPARRPRP, the “shrunken log2 fold change” value was 0.435.
As for RRIRHRPPRLPRPRPRPQLWPRP, the figure is 0.0534.
Turning to RRIRCRPPRLPRPRPRPSETPRP, the “shrunken log2 fold change” value came out at 0.108.
On to RRIRNRPPRLPRPRPRPSGMPRP, for which the “shrunken log2 fold change” value was -0.207.
For RRIRRRPPRLPRPRPRPFYPPRP, the “shrunken log2 fold change” value is -0.189.
With RRIRDRPPRLPRPRPRPESIPRP, the “shrunken log2 fold change” value was -0.0509.
Turning to RRIRRRPPRLPRPRPRPKWSPRP, the “shrunken log2 fold change” value was 0.457.
With RRIRHRPPRLPRPRPRPTFDPRP, the “shrunken log2 fold change” value turned out to be 0.0575.
Consider RRIRFRPPRLPRPRPRPRWLPRP, for which the “shrunken log2 fold change” value came out at 0.269.
As for RRIRVRPPRLPRPRPRPCPMPRP, the “shrunken log2 fold change” value is -0.0643.
Under RRIRKRPPRLPRPRPRPRCDPRP stands 0.288; under RRIRKRPPRLPRPRPRPWKGPRP, 0.0195; under RRIRVRPPRLPRPRPRPFEEPRP, -0.000457.
Consider RRIRYRPPRLPRPRPRPTQHPRP, for which the “shrunken log2 fold change” value was -0.309.
As for RRIRNRPPRLPRPRPRPQSYPRP, the “shrunken log2 fold change” value was determined as 0.0549.
Turning to RRIRWRPPRLPRPRPRPKQNPRP, the “shrunken log2 fold change” value is 0.3.
As for RRIRERPPRLPRPRPRPMLQPRP, the figure is -0.161; as for RRIRNRPPRLPRPRPRPDFNPRP, -0.186; as for RRIRYRPPRLPRPRPRPDVKPRP, -0.294.
Consider RRIRDRPPRLPRPRPRPLDPPRP, for which the “shrunken log2 fold change” value worked out at 0.0323.
Regarding RRIRTRPPRLPRPRPRPRCEPRP, the “shrunken log2 fold change” value was 0.117.
As for RRIRQRPPRLPRPRPRPVRHPRP, the figure is -0.0023; as for RRIRWRPPRLPRPRPRPESLPRP, 0.412.
Under RRIRQRPPRLPRPRPRPQFGPRP stands 0.0348; under RRIRCRPPRLPRPRPRPRRDPRP, 0.0823.
In the case of RRIRTRPPRLPRPRPRPPSYPRP, the “shrunken log2 fold change” value is -0.0622.
As for RRIRYRPPRLPRPRPRPQKDPRP, the figure is -0.177.
On to RRIRARPPRLPRPRPRPTHDPRP, for which the “shrunken log2 fold change” value worked out at 0.645.
With RRIRMRPPRLPRPRPRPPVDPRP, the “shrunken log2 fold change” value was 1.14.
Turning to RRIRRRPPRLPRPRPRPWDLPRP, the “shrunken log2 fold change” value was -0.04.
RRIRWRPPRLPRPRPRPMTRPRP: the “shrunken log2 fold change” value worked out at 0.0972.
In the case of RRIRFRPPRLPRPRPRPWTRPRP, the “shrunken log2 fold change” value was -0.0481.
Under RRIRGRPPRLPRPRPRPKCAPRP stands 1.61.
As for RRIRSRPPRLPRPRPRPQTTPRP, the figure is -0.237; as for RRIRERPPRLPRPRPRPLWNPRP, -0.298; as for RRIRTRPPRLPRPRPRPWNAPRP, -0.00214.
In the case of RRIRCRPPRLPRPRPRPNEDPRP, the “shrunken log2 fold change” value was 0.0261.
Regarding RRIRWRPPRLPRPRPRPEQPPRP, the “shrunken log2 fold change” value was found to be 0.157.
Turning to RRIRNRPPRLPRPRPRPQEHPRP, the “shrunken log2 fold change” value was found to be 0.422.
Take RRIRSRPPRLPRPRPRPFCFPRP: the “shrunken log2 fold change” value was -0.069.
RRIRIRPPRLPRPRPRPLCYPRP: the “shrunken log2 fold change” value is -1.07.
Under RRIRNRPPRLPRPRPRPFDFPRP stands -0.161.
Turning to RRIRERPPRLPRPRPRPGLVPRP, the “shrunken log2 fold change” value is -0.061.
In the case of RRIRQRPPRLPRPRPRPYSHPRP, the “shrunken log2 fold change” value was -0.0388.
As for RRIRTRPPRLPRPRPRPFYQPRP, the figure is -0.65.
Take RRIRPRPPRLPRPRPRPCPQPRP: the “shrunken log2 fold change” value is -0.0291.
In the case of RRIRARPPRLPRPRPRPMICPRP, the “shrunken log2 fold change” value is 0.0985.
Regarding RRIRHRPPRLPRPRPRPCFPPRP, the “shrunken log2 fold change” value is -0.517.
Under RRIRERPPRLPRPRPRPQIHPRP stands -0.835; under RRIRIRPPRLPRPRPRPNSHPRP, -0.866.
On to RRIRNRPPRLPRPRPRPNMQPRP, for which the “shrunken log2 fold change” value is -0.184.
Regarding RRIRMRPPRLPRPRPRPILRPRP, the “shrunken log2 fold change” value amounted to 0.00958.
As for RRIRRRPPRLPRPRPRPRDKPRP, the figure is 0.126; as for RRIRCRPPRLPRPRPRPEGSPRP, -0.043.
For RRIRTRPPRLPRPRPRPPWRPRP, the “shrunken log2 fold change” value was determined as 0.747.
Under RRIRERPPRLPRPRPRPDCDPRP stands -0.121; under RRIRARPPRLPRPRPRPQITPRP, 0.118; under RRIRERPPRLPRPRPRPMFLPRP, -0.206.
With RRIRGRPPRLPRPRPRPDWKPRP, the “shrunken log2 fold change” value came to 0.000125.
Take RRIRIRPPRLPRPRPRPPQCPRP: the “shrunken log2 fold change” value was -0.244.
